Laboratory results taken from publication PMC9482650, “Quantitative fragmentomics allow affinity mapping of interactomes” (Nature Communications, 2022).

What was measured:
Test in all cases: holdup assay
Parameters in all cases: key: below the threshold = too weak to quantify, mostly under pKd 3.1 to 4
AHNAK1, Q09666 = target: AHNAK1, Q09666
DFNB31_1, Q9P202 = target: T1, DFNB31_1, Q9P202
T1 sequence (Q9P202 135-233, limits assumed, looked up): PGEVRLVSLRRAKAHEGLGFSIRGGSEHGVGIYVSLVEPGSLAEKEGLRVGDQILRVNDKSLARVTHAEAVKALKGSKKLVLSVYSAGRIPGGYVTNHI

DLG1_3, Q12959 = target: DLG1_3, Q12959
Chain of DLG1_3, Q12959 (Q12959 457-571): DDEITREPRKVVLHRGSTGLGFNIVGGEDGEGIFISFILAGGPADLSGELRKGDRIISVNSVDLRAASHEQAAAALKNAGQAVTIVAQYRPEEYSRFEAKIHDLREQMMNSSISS

DLG3_1, Q92796 = target: T2, DLG3_1, Q92796
T2 sequence (Q92796 125-227, limits assumed, looked up): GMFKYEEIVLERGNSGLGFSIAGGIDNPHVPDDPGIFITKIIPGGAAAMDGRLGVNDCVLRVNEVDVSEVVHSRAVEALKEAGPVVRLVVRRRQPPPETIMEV

DLG3_2, Q92796 = target: T3, DLG3_2, Q92796
T3 sequence (Q92796 221-321, limits assumed, looked up): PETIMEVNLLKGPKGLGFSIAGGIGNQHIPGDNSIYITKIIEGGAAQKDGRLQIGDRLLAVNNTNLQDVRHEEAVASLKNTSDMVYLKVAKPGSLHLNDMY

FRMPD2_3, Q68DX3 = target: FRMPD2_3, Q68DX3
Chain of FRMPD2_3, Q68DX3 (Q68DX3 1073-1166): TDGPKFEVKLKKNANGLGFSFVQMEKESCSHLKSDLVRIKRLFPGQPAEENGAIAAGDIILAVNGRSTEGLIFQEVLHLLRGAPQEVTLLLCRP

GRID2IP_1, A4D2P6 = target: GRID2IP_1, A4D2P6
Chain of GRID2IP_1, A4D2P6 (A4D2P6 1-87): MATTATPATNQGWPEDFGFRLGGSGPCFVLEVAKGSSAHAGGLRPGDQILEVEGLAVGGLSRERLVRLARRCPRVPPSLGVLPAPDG

Inadl_3, Q8NI35 = target: Inadl_3, Q8NI35
Chain of Inadl_3, Q8NI35 (Q8NI35 359-469): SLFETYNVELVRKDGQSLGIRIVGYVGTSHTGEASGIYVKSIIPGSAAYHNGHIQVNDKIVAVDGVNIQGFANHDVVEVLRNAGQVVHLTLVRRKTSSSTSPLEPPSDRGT

Inadl_5, Q8NI35 = target: Inadl_5, Q8NI35
Chain of Inadl_5, Q8NI35 (Q8NI35 673-780): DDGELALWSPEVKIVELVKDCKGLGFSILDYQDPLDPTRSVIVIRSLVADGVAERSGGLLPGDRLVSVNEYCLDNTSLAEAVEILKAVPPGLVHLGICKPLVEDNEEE

LDB3, O75112 = target: LDB3, O75112
Chain of LDB3, O75112 (O75112 1-94): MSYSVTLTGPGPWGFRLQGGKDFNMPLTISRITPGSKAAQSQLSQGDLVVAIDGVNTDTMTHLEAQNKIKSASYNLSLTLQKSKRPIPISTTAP

LIN7B, Q9HAP6 = target: T4, LIN7B, Q9HAP6
T4 sequence (Q9HAP6 88-185, limits assumed, looked up): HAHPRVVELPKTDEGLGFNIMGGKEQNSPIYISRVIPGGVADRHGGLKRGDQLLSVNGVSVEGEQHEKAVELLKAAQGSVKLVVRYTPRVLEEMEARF

MPDZ_10, O75970 = target: T5, MPDZ_10, O75970
T5 sequence (O75970 1624-1722, limits assumed, looked up): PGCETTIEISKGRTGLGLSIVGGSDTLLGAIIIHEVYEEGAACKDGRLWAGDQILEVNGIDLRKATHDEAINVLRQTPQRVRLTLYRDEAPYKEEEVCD

MPDZ_12, O75970 = target: T6, MPDZ_12, O75970
T6 sequence (O75970 1857-1958, limits assumed, looked up): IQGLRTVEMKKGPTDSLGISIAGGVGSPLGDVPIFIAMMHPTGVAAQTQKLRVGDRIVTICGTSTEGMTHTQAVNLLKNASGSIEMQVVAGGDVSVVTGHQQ

MPDZ_5, O75970 = target: T7, MPDZ_5, O75970
T7 sequence (O75970 695-796, limits assumed, looked up): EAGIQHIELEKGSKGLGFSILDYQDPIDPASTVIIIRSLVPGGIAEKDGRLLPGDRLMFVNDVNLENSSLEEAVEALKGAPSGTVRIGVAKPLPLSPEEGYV

NHERF3_3, Q5T2W1 = target: T8, NHERF3_3, Q5T2W1
T8 sequence (Q5T2W1 238-333, limits assumed, looked up): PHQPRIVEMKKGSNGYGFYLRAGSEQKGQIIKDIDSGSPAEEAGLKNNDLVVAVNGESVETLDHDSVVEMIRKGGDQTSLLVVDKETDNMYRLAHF

NHERF4_2, Q86UT5 = target: NHERF4_2, Q86UT5
Chain of NHERF4_2, Q86UT5 (Q86UT5 220-308): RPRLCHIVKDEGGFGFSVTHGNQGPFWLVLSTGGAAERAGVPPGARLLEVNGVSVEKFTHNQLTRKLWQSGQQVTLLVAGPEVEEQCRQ

NHERF4_4, Q86UT5 = target: NHERF4_4, Q86UT5
Chain of NHERF4_4, Q86UT5 (Q86UT5 464-550): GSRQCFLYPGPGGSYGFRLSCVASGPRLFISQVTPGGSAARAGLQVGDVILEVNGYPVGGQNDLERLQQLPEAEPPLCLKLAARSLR

PDZRN3_1, Q9UPQ7 = target: T9, PDZRN3_1, Q9UPQ7
T9 sequence (Q9UPQ7 244-349, limits assumed, looked up): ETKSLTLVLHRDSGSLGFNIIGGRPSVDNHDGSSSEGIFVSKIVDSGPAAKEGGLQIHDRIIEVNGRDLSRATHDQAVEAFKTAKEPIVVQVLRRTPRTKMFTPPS

RAPGEF6, Q8TEU7 = target: T10, RAPGEF6, Q8TEU7
T10 sequence (Q8TEU7 525-625, limits assumed, looked up): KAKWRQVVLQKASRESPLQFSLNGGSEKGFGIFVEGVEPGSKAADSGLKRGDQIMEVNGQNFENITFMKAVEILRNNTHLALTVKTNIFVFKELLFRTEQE

SCRIB_1, Q14160 = target: SCRIB_1, Q14160
Chain of SCRIB_1, Q14160 (Q14160 718-814): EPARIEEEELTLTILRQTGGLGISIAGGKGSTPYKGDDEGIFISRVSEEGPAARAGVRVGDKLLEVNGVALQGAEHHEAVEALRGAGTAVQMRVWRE

SIPA1L2, Q9P2F8 = target: T11, SIPA1L2, Q9P2F8
T11 sequence (Q9P2F8 945-1036, limits assumed, looked up): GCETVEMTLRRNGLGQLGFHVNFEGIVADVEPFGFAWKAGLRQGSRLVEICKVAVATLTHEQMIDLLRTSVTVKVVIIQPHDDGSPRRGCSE

SNTG2, Q9NY99 = target: T12, SNTG2, Q9NY99
T12 sequence (Q9NY99 68-166, limits assumed, looked up): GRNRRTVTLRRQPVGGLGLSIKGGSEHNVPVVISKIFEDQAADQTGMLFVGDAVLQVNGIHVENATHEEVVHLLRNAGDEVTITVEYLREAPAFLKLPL

SNX27, Q96L92 = target: SNX27, Q96L92
TJP1_3, Q07157 = target: TJP1_3, Q07157
Chain of TJP1_3, Q07157 (Q07157 416-512): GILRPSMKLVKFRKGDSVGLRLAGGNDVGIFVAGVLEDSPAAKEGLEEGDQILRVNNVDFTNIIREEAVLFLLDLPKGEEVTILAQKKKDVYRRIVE

[1] = plain residues with an end cap or a label only (N-terminal biotin on a linker: ado-ado)
[2] = plain residues with an end cap or a label only (N-terminal biotin on a linker: ahx)

Chain of AHNAK1, Q09666 (Q09666 4-100): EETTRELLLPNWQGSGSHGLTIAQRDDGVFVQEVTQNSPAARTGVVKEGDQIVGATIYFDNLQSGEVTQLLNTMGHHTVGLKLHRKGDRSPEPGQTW

B1: PTTG2, Q9NZH5 (peptide)
chain: LPAVCYDIDI
Q: For B1, which pKd (AHNAK1, Q09666; [1]) is on record?
A: below the threshold

Q: What about the pKd (DFNB31_1, Q9P202; [1]) of the same binder?
A: below the threshold

Q: And the pKd (DLG1_3, Q12959; [1])?
A: below the threshold

Q: What about the pKd (DLG3_1, Q92796; [1]) of the same binder?
A: below the threshold

Q: And the pKd (DLG3_2, Q92796; [1])?
A: 4.09

Q: What about the pKd (FRMPD2_3, Q68DX3; [1]) of the same binder?
A: below the threshold

Q: And the pKd (GRID2IP_1, A4D2P6; [1])?
A: below the threshold

Q: And the pKd (Inadl_3, Q8NI35; [1])?
A: 4.63

Q: And the pKd (Inadl_5, Q8NI35; [1])?
A: below the threshold

Q: And the pKd (LDB3, O75112; [1])?
A: below the threshold

Q: What about the pKd (LIN7B, Q9HAP6; [1]) of the same binder?
A: 3.53

Q: What about the pKd (MPDZ_10, O75970; [1]) of the same binder?
A: below the threshold

Q: What about the pKd (MPDZ_12, O75970; [1]) of the same binder?
A: 3.48

Q: What about the pKd (MPDZ_5, O75970; [1]) of the same binder?
A: below the threshold

Q: And the pKd (NHERF3_3, Q5T2W1; [1])?
A: below the threshold

Q: And the pKd (NHERF4_2, Q86UT5; [1])?
A: below the threshold

Q: What about the pKd (NHERF4_4, Q86UT5; [1]) of the same binder?
A: 4.9

Q: And the pKd (PDZRN3_1, Q9UPQ7; [1])?
A: below the threshold

Q: And the pKd (RAPGEF6, Q8TEU7; [1])?
A: below the threshold

Q: What about the pKd (SCRIB_1, Q14160; [1]) of the same binder?
A: below the threshold

Q: What about the pKd (SIPA1L2, Q9P2F8; [1]) of the same binder?
A: below the threshold

Q: And the pKd (SNTG2, Q9NY99; [1])?
A: below the threshold

Q: And the pKd (SNX27, Q96L92; [1])?
A: below the threshold

Q: What about the pKd (TJP1_3, Q07157; [1]) of the same binder?
A: below the threshold

B2: ACE2, Q9BYF1 (peptide)
chain: QNTDDVQTSF
Q: For B2, which pKd (AHNAK1, Q09666; [2]) is on record?
A: below the threshold

Q: What about the pKd (DFNB31_1, Q9P202; [2]) of the same binder?
A: 3.47

Q: What about the pKd (DLG1_3, Q12959; [2]) of the same binder?
A: below the threshold

Q: What about the pKd (DLG3_1, Q92796; [2]) of the same binder?
A: below the threshold

Q: And the pKd (DLG3_2, Q92796; [2])?
A: 3.76

Q: What about the pKd (FRMPD2_3, Q68DX3; [2]) of the same binder?
A: below the threshold

Q: And the pKd (GRID2IP_1, A4D2P6; [2])?
A: below the threshold

Q: What about the pKd (Inadl_3, Q8NI35; [2]) of the same binder?
A: 3.66

Q: And the pKd (Inadl_5, Q8NI35; [2])?
A: below the threshold

Q: And the pKd (LDB3, O75112; [2])?
A: below the threshold

Q: What about the pKd (LIN7B, Q9HAP6; [2]) of the same binder?
A: below the threshold

Q: What about the pKd (MPDZ_10, O75970; [2]) of the same binder?
A: below the threshold

Q: And the pKd (MPDZ_12, O75970; [2])?
A: below the threshold

Q: What about the pKd (MPDZ_5, O75970; [2]) of the same binder?
A: below the threshold

Q: And the pKd (NHERF3_3, Q5T2W1; [2])?
A: below the threshold

Q: What about the pKd (NHERF4_2, Q86UT5; [2]) of the same binder?
A: below the threshold

Q: And the pKd (NHERF4_4, Q86UT5; [2])?
A: below the threshold

Q: And the pKd (PDZRN3_1, Q9UPQ7; [2])?
A: below the threshold

Q: And the pKd (RAPGEF6, Q8TEU7; [2])?
A: below the threshold

Q: What about the pKd (SCRIB_1, Q14160; [2]) of the same binder?
A: below the threshold

Q: And the pKd (SIPA1L2, Q9P2F8; [2])?
A: below the threshold

Q: What about the pKd (SNTG2, Q9NY99; [2]) of the same binder?
A: below the threshold

Q: And the pKd (SNX27, Q96L92; [2])?
A: 4.95

Q: And the pKd (TJP1_3, Q07157; [2])?
A: below the threshold

B3: OR8G1, Q15617 (peptide)
chain: KKMLQRRTLL
Q: How did the pKd (AHNAK1, Q09666; [1]) turn out when B3 was run?
A: below the threshold

Q: And the pKd (DFNB31_1, Q9P202; [1])?
A: below the threshold

Q: And the pKd (DLG1_3, Q12959; [1])?
A: below the threshold

Q: And the pKd (DLG3_1, Q92796; [1])?
A: below the threshold

Q: And the pKd (DLG3_2, Q92796; [1])?
A: below the threshold

Q: What about the pKd (FRMPD2_3, Q68DX3; [1]) of the same binder?
A: below the threshold

Q: What about the pKd (GRID2IP_1, A4D2P6; [1]) of the same binder?
A: below the threshold

Q: And the pKd (Inadl_3, Q8NI35; [1])?
A: below the threshold

Q: What about the pKd (Inadl_5, Q8NI35; [1]) of the same binder?
A: below the threshold

Q: And the pKd (LDB3, O75112; [1])?
A: below the threshold

Q: What about the pKd (LIN7B, Q9HAP6; [1]) of the same binder?
A: below the threshold

Q: And the pKd (MPDZ_10, O75970; [1])?
A: below the threshold

Q: What about the pKd (MPDZ_12, O75970; [1]) of the same binder?
A: below the threshold

Q: And the pKd (MPDZ_5, O75970; [1])?
A: below the threshold

Q: And the pKd (NHERF3_3, Q5T2W1; [1])?
A: 3.77

Q: What about the pKd (NHERF4_2, Q86UT5; [1]) of the same binder?
A: below the threshold

Q: What about the pKd (NHERF4_4, Q86UT5; [1]) of the same binder?
A: below the threshold

Q: And the pKd (PDZRN3_1, Q9UPQ7; [1])?
A: 3.6

Q: And the pKd (RAPGEF6, Q8TEU7; [1])?
A: below the threshold

Q: And the pKd (SCRIB_1, Q14160; [1])?
A: 3.71

Q: And the pKd (SIPA1L2, Q9P2F8; [1])?
A: below the threshold

Q: And the pKd (SNTG2, Q9NY99; [1])?
A: below the threshold

Q: And the pKd (SNX27, Q96L92; [1])?
A: 3.75

Q: And the pKd (TJP1_3, Q07157; [1])?
A: below the threshold
